Assay results from the supplement of paper PMC11811203.

B1: THAP1; numbered along this chain (parent)
chain: MVQSCSAYGCKNRYDKDKPVSFHKFPLTRPSLCKEWEAAVRRKNFKPTKYSSICSEHFTPDCFKRECNNKLLKENAVPTIFLCTEPHDKKEDLLEPQEQLPPPPLPPPVSQVDAAIGLLMPPLQTPVNLSVFCDHNYTVEDTMHQRKRIHQLEQQVEKLRKKLKTAQQRCRRQERQLEKLKEVVHFQKEKDDVSERGYVILPNDYFEIVEVPA

Variants of: B1
Test: THAP1 transcriptional activity (GFP+/GFP- enrichment relative to wild-type constructs) (ratio to WT); higher = more THAP1 activity (PSMB5 reporter activation)
Conditions: with PSMB5 promoter-GFP reporter
Experimental: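 Deep mutational scan of human THAP1. Site-saturation single amino acid variant library (residues 2-213) was expressed by lentivirus at MOI ~0.3 in THAP1-knockout HEK-293T cells carrying an endogenous PSMB5 promoter-GFP knock-in reporter. Five days post-transduction, BFP+ cells were FACS-sorted into GFP dim and GFP bright populations and variants were counted by Illumina sequencing. Activity is the GFP-bright/GFP-dim read fold change, mean of 2 replicates, divided by the mean fold change of wild-type (synonymous) constructs in the same screen pool; WT = 1.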

THAP1 transcriptional activity of substitutions, site by site:
C5: A 0.147 | R 0.132 | P 0.0866 | F 0.125 | I 0.0585 | V 0.174 | K 0.167 | W 0.202 | Y 0.118 | G 0.131 | H 0.127 | S 0.0878 | N 0.208 | E 0.115 | T 0.162 | Q 0.133 | L 0.147 | D 0.262 | M 0.18
K16: T 0.136 | E 0.125 | Q 0.164 | D 0.0673 | C 0.121 | H 0.0905 | L 0.129 | W 0.208 | S 0.191 | F 0.117 | R 0.661 | V 0.255 | A 0.284 | I 0.197 | P 0.334 | M 0.105 | Y 0.158 | G 0.17 | N 0.0777
G9: P 0.116 | I 0.144 | R 0.256 | M 0.381 | V 0.0945 | C 0.261 | L 0.184 | K 0.4 | F 0.148 | W 0.167 | H 0.283 | A 0.209 | D 0.196 | Q 0.115 | Y 0.149 | N 0.241 | T 0.132 | S 0.167
P19: Q 0.335 | E 0.528 | H 0.266 | F 0.276 | G 0.547 | D 0.681 | L 0.412 | C 0.529 | A 0.691 | I 0.186 | M 0.208 | R 0.675 | S 0.78 | K 0.674 | N 0.682
V2: Y 0.16 | W 0.109 | S 0.297 | I 0.157 | G 0.0831 | E 0.154 | Q 0.178 | T 0.21 | R 0.122 | C 0.162 | M 0.183 | P 0.71 | K 0.0614 | N 0.157 | L 0.214 | H 0.247 | D 0.178 | F 0.161
N12: S 0.283 | F 0.112 | R 0.172 | I 0.0667 | E 0.111 | H 0.108 | W 0.121 | V 0.129 | C 0.0986 | A 0.107 | T 0.097 | G 0.0923 | Q 0.22 | D 0.0987 | K 0.125 | Y 0.149 | P 0.0735 | M 0.199 | L 0.0949
Q3: A 0.849 | R 0.187 | E 0.155 | Y 0.149 | S 0.278 | F 0.143 | P 0.186 | D 0.119 | N 0.442 | V 0.563 | T 0.534 | M 0.486 | C 0.269 | I 0.678 | W 0.0989 | L 0.354 | G 0.159 | K 0.266 | H 1.01
S6: A 0.787 | F 0.149 | H 0.106 | M 0.172 | P 0.185 | Y 0.202 | I 0.183 | Q 0.103 | E 0.153 | T 0.309 | N 0.174 | C 0.562 | V 0.541 | K 0.122 | R 0.223 | D 0.163 | G 0.123 | L 0.0726 | W 0.163
R13: C 0.132 | F 0.14 | G 0.106 | K 0.211 | D 0.115 | H 0.117 | L 0.229 | I 0.116 | M 0.0992 | P 0.0852 | W 0.232 | E 0.153 | Q 0.122 | S 0.133 | A 0.17 | Y 0.0688 | V 0.185 | T 0.147 | N 0.126
K11: R 0.771 | A 0.284 | G 0.133 | M 0.124 | I 0.265 | Y 0.201 | H 0.343 | L 0.191 | E 0.121 | N 0.629 | P 0.178 | C 0.369 | T 0.513 | Q 0.354 | D 0.0638 | W 0.0942 | S 0.282 | V 0.529
D15: A 0.754 | C 0.853 | Y 0.172 | M 0.419 | N 0.605 | W 0.122 | S 0.562 | H 0.997 | P 0.107 | I 0.436 | R 0.656 | Q 1.05 | L 0.298 | E 0.569 | T 0.679 | K 0.704 | G 0.411 | V 0.631 | F 0.272
K18: M 0.186 | P 0.0831 | V 0.618 | F 0.11 | T 0.348 | E 0.152 | A 0.356 | R 0.936 | W 0.131 | G 0.258 | Q 0.511 | Y 0.142 | L 0.367 | C 0.238 | I 0.444 | N 0.432 | S 0.384 | D 0.0802 | H 0.202
Y8: M 0.368 | H 0.464 | R 0.374 | P 0.58 | L 0.795 | A 0.581 | D 0.564 | I 0.484 | T 0.785 | S 0.467 | C 0.192 | W 1.08 | K 0.356 | Q 0.509 | V 0.472 | G 0.241 | F 0.667 | E 0.484 | N 0.449
A7: V 0.612 | W 0.0983 | T 0.0906 | P 0.0917 | C 0.163 | I 0.165 | R 0.122 | H 0.179 | D 0.0976 | Y 0.218 | K 0.186 | L 0.156 | N 0.133 | F 0.19 | G 0.118 | E 0.154 | M 0.279 | S 0.122 | Q 0.1
S4: C 0.233 | P 0.142 | F 0.177 | H 0.111 | Q 0.114 | A 0.338 | N 0.14 | R 0.164 | V 0.187 | L 0.241 | E 0.103 | Y 0.123 | T 0.966 | G 0.254 | I 0.182 | D 0.154 | M 0.201 | W 0.171 | K 0.127
C10: D 0.129 | W 0.125 | E 0.0982 | N 0.121 | M 0.103 | R 0.157 | F 0.113 | H 0.0737 | G 0.098 | V 0.175 | P 0.114 | L 0.167 | I 0.0687 | K 0.156 | S 0.308 | Q 0.125 | Y 0.106 | T 0.0641
Y14: T 0.0786 | G 0.085 | P 0.164 | Q 0.142 | D 0.122 | A 0.211 | W 0.851 | R 0.36 | N 0.165 | C 0.157 | F 0.5 | I 0.119 | K 0.083 | S 0.124 | H 0.106 | L 0.146 | M 0.0755 | E 0.0718 | V 0.151
D17: H 1.05 | R 1.11 | N 0.707 | Y 0.747 | P 0.129 | L 0.861 | S 1.49 | G 0.387 | C 0.541 | W 0.509 | I 0.0905 | A 1.12 | M 1.14 | T 1.49 | E 0.889 | V 0.314 | F 0.706 | Q 1.12 | K 1.31
